The record followed here is patent US20250154283A1 (published 2025).

The target in the assay is T1, biotinylated human VWF cysteine knot (CK) domain construct (human, biotin on the in vitro biotinylation tag (residue not stated); one N-glycan).
T1 construct: Disulfide-linked homodimer; also called biotinylated human VWF CK domain; human VWF CK domain construct
T1 chain: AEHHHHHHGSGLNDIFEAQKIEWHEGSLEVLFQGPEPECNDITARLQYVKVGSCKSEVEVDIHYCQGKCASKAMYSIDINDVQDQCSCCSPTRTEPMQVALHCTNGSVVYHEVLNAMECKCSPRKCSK
Put plainly: SPR, scFv captured on anti-SV5, pH 7.4.

B1: 76_Lib4_scFv (scFv, not shown: small tags and cut ends)
scFv: QVQLQESGPGLVKPSQTLSLTCTVSGVSISNHYWSWIRQPPGKGLEWIGYIDESGSTDYNPSLKSRVTMSVDTSKNQFSLKVNSVTAADTAVYYCARVSWGYYAMDVWGQGTTVTVSSSGGSTITSYNVYYTKLSSSGTEIVMTQSPATLSLSPGERATLSCRASQGVSGHLAWYQQKPGQAPRLLIYETSKRATGIPARFSGSGSGTDFTLTISSLEPEDFAVYYCQQYNDYPLGFGGGTKVEIK
Consider B1, for which the binding result was “binds”.

B2: 7046_Lib8_scFv (scFv, not shown: small tags and cut ends)
scFv: EVQLVESGGGLVQPGRSLRLSCAASGFNFHNYDMHWVRQAPGKGLEWVSAISGSGYTADYADSVEGRFTISRDNAKNSLYLQMNSLRAEDTAVYYCAKSHSSGWSSAFDIWGQGTMVTVSSSGGSTITSYNVYYTKLSSSGTDIQMTQSPSSLSASVGDRVTITCRASQTIGYWLAWYQQKPGKAPKLLIYDATNLATGVPSRFSGSGSGTDFTLTISSLQPEDVATYYCQHYNPYSQVTFGGGTKVEIK
In the case of B2, the binding result was “binds”.

B3: 9312_Lib8_scFv (scFv, not shown: small tags and cut ends)
scFv: EVQLVESGGGLVQPGRSLRLSCAASGFSLSTYDMHWVRQAPGKGLEWVSAISSSGDTRDYADSVEGRFTISRDNAKNSLYLQMNSLRAEDTAVYYCARAFWGGDAFDIWGQGTMVTVSSSGGSTITSYNVYYTKLSSSGTDIQMTQSPSSLSASVGDRVTITCRASQTIGYWLAWYQQKPGKAPKLLIYGASTLEGGVPSRFSGSGSGTDFTLTISSLQPEDVATYYCQHSYSAPPTFGGGTKVEIK
In the case of B3, the binding result was “binds”.

B4: 15244_Lib8_scFv (scFv, not shown: small tags and cut ends)
scFv: EVQLVESGGGLVQPGRSLRLSCAASGFTFADYDMHWVRQAPGKGLEWVSATSSHGVTTDYADSVEGRFTISRDNAKNSLYLQMNSLRAEDTAVYYCARGAWSGIAARQYIDYWGQGTLVTVSSSGGSTITSYNVYYTKLSSSGTDIQMTQSPSSLSASVGDRVTITCRASQTIGYWLAWYQQKPGKAPKLLIYDASVPESGVPSRFSGSGSGTDFTLTISSLQPEDVATYYCQQSYSYPLTFGGGTKVEIK
In the case of B4, the binding result was “binds”.

B5: 1675_Lib1_scFv (scFv, not shown: small tags and cut ends)
scFv: QVQLVQSGAEVKKPGASVKVSCKVSGVTLTSSAISWVRQAPGKGLEWMGGITPIFGTPIYAQKFQGRVTMTEDTSTDTAYMELSSLKSEDTAVYYCATDYGYPFWAFDIWGQGTMVTVSSSGGSTITSYNVYYTKLSSSGTDIQMTQSPSSVSASVGDRVTITCRASQGIYSALAWYQQKPGKAPKLLIYESSKRPSGVPSRFSGSGSGTDFTLTISSLQPEDFANYYCEQYASSPPTFGGGTKVEIK
B5: the binding result was “binds”.

B6: Lib4_P2_A11_scFv (scFv, not shown: small tags and cut ends)
scFv: QVQLQESGPGLVKPSQTLSLTCTVSGVTFSSYGWSWIRQPPGKGLEWIGYVDTSGSTDYNPSLKSRVTMSVDTSKNQFSLKVNSVTAADTAVYYCARTTYYYDSSGFARGWFDPWGQGTLVTVSSSGGSTITSYNVYYTKLSSSGTEIVMTQSPATLSLSPGERATLSCRASRSISTNLAWYQRKPGQAPRLLIYDTSNRAPGIPARFSGSGSGTDFTLTISSLEPEDFAVYYCLQYDVSPYTFGGGTKVEIK
notes: also called Lib4_P2_All
With B6, the binding result is “binds”.

B7: 965_Lib4_scFv (scFv, not shown: small tags and cut ends)
scFv: QVQLQESGPGLVKPSQTLSLTCTVSGASFGDNYWSWIRQPPGKGLEWIGYIDTSGSSDYNPSLKSRVTMSVDTSKNQFSLKVNSVTAADTAVYYCARDALGYYYMDVWGKGTTVTVSSSGGSTITSYNVYYTKLSSSGTEIVMTQSPATLSLSPGERATLSCRASQGISGRLAWYQQKPGQAPRLLIYDASARASGIPARFSGSGSGTDFTLTISSLEPEDFAVYYCQQYGTSPYTFGGGTKVEIK
B7: the binding result is recorded as “binds”.

B8: Lib4_P2_D1_scFv (scFv, not shown: small tags and cut ends)
scFv: QVQLVQSGAEVKKPGASVKVSCKVSGDTLSNYAIHWVRQAPGKGLEWMGGINPNAGTTIYAQKFQGRVTMTEDTSTDTAYMELSSLKSEDTAVYYCARDSSSWCPVGYYYYYMDVWGKGTTVTVSSSGGSTITSYNVYYTKLSSSGTDIQMTQSPSSVSASVGDRVTITCRASQSIGDFLAWYQQKPGKAPKLLIYDASHLQTGVPSRFSGSGSGTDFTLTISSLQPEDFANYYCQQTSTIPPTFGGGTKVEIK
With B8, the binding result is listed as “binds”.

B9: Lib1_P1_A5_scFv (scFv, not shown: small tags and cut ends)
scFv: QVQLVQSGAEVKKPGASVKVSCKVSGDTLSNYAIHWVRQAPGKGLEWMGGINPNAGTTIYAQKFQGRVTMTEDTSTDTAYMELSSLKSEDTAVYYCARDSSSWCPVGYYYYYMDVWGKGTTVTVSSSGGSTITSYNVYYTKLSSSGTDIQMTQSPSSVSASVGDRVTITCRASQSIGDFLAWYQQKPGKAPKLLIYDASHLQTGVPSRFSGSGSGTDFTLTISSLQPEDFANYYCQQTSTIPPTFGGGTKVEIK
For the molecule B9, the binding result is on record as “binds”.

B10: 5662_Lib8_scFv (scFv, not shown: small tags and cut ends)
scFv: EVQLVESGGGLVQPGRSLRLSCAASGFNFHNYDMHWVRQAPGKGLEWVSAIDISGQSTDYADSVEGRFTISRDNAKNSLYLQMNSLRAEDTAVYYCAREGWYGGVFDYWGQGTLVTVSSSGGSTITSYNVYYTKLSSSGTDIQMTQSPSSLSASVGDRVTITCRASQDIANWLAWYQQKPGKAPKLLIYGASESGVGVPSRFSGSGSGTDFTLTISSLQPEDVATYYCQQSLTMKTFGGGTKVEIK
As to B10, the binding result is “binds”.

B11: 69_Lib8_scFv (scFv, not shown: small tags and cut ends)
scFv: EVQLVESGGGLVQPGRSLRLSCAASAFTFSNYDMHWVRQAPGKGLEWVSAISGSGDTSDYADSVEGRFTISRDNAKNSLYLQMNSLRAEDTAVYYCVRASWYGTFFDYWGQGTLVTVSSSGGSTITSYNVYYTKLSSSGTDIQMTQSPSSLSASVGDRVTITCRASQSVSGWLAWYQQKPGKAPKLLIYGTSTLQSGVPSRFSGSGSGTDFTLTISSLQPEDVATYYCQQSYSAPYTFGGGTKVEIK
Consider B11, for which the binding result is “binds”.

B12: 27_Lib4_scFv (scFv, not shown: small tags and cut ends)
scFv: QVQLQESGPGLVKPSQTLSLTCTVSGASFGDHYWSWIRQPPGKGLEWIGYIDATGSIDYNPSLKSRVTMSVDTSKNQFSLKVNSVTAADTAVYYCARVASYYYYMDVWGKGTTVTVSSSGGSTITSYNVYYTKLSSSGTEIVMTQSPATLSLSPGERATLSCRASQSITGSYLAWYQQKPGQAPRLLIYGASDRAPGIPARFSGSGSGTDFTLTISSLEPEDFAVYYCQQYGSFPYTFGGGTKVEIK
For B12, the binding result is reported as “binds”.

B13: 4761_Lib8_scFv (scFv, not shown: small tags and cut ends)
scFv: EVQLVESGGGLVQPGRSLRLSCAASGFTFSSDTMHWVRQAPGKGLEWVSAISSSGDHTDYADSVEGRFTISRDNAKNSLYLQMNSLRAEDTAVYYCAREGLRGYYFDYWGQGTLVTVSSSGGSTITSYNVYYTKLSSSGTDIQMTQSPSSLSASVGDRVTITCRASQGISGHLAWYQQKPGKAPKLLIYAASALQSGVPSRFSGSGSGTDFTLTISSLQPEDVATYYCQQSHSLPWTFGGGTKVEIK
B13: the binding result is “binds”.

B14: Lib6_P3_A8_scFv (scFv, not shown: small tags and cut ends)
scFv: EVQLVQSGAEVKKPGASVKVSCKASGYRFTNYDISWVRQAPGQGLEWMGGINPSSGITIYAQKLQGRGTMTTDPSTSTAYMELRSLRSDDTAVYYCARGAAYGDYLDYWGQGTLVTVSSSGGSTITSYNVYYTKLSSSGTESALTQPASVSGSPGQSITISCTGTNLGEKYVSWYQQHPGKAPKLMIYSTSQRPSGVSNRFSGSKSGNTASLTITGLQAEDEADYYCSSYTASSTPGLVFGGGTKLTVL
Consider B14, for which the binding result is reported as “binds”.

B15: 399_Lib1_scFv (scFv, not shown: small tags and cut ends)
scFv: QVQLVQSGAEVKKPGASVKVSCKVSGITFTSDYIHWVRQAPGKGLEWMGGMNPYSNKAIYAQKFQGRVTMTEDTSTDTAYMELSSLKSEDTAVYYCATGGLRIAARTSYFDYWGQGTLVTVSSSGGSTITSYNVYYTKLSSSGTDIQMTQSPSSVSASVGDRVTITCRASMDIAGSLAWYQQKPGKAPKLLIYDTSFRATGVPSRFSGSGSGTDFTLTISSLQPEDFANYYCQQYDNPPRLTFGGGTKVEIK
In the case of B15, the binding result is listed as “binds”.

B16: Lib4_P2_A10_scFv (scFv, not shown: small tags and cut ends)
scFv: QVQLQESGPGLVKPSQTLSLTCTVSGASLGHQYWSWIRQPPGKGLEWIGYIDTSGSTDYNPSLKSRVTMSVDTSKNQFSLKVNSVTAADTAVYYCARVANYYYYMDVWGKGTTVTVSSSGGSTITSYNVYYTKLSSSGTEIVMTQSPATLSLSPGERATLSCRASQSVSNRLAWYQQKPGQAPRLLIYDASNRATGIPARFSGSGSGTDFTLTISSLEPEDFAVYYCQQYFITPSTFGGGTKVEIK
For the molecule B16, the binding result is “binds”.

B17: 4956_Lib1_scFv (scFv, not shown: small tags and cut ends)
scFv: QVQLVQSGAEVKKPGASVKVSCKVSGYTLTSNYIHWVRQAPGKGLEWMGGFNPSSGSTIYAQKFQGRVTMTEDTSTDTAYMELSSLKSEDTAVYYCARTLYDFWSGYLDAFDIWGQGTMVTVSSSGGSTITSYNVYYTKLSSSGTDIQMTQSPSSVSASVGDRVTITCRASQNIRSSLAWYQQKPGKAPKLLIYAASNLEPGVPSRFSGSGSGTDFTLTISSLQPEDFANYYCQQYEDTPLTFGGGTKVEIK
For the molecule B17, the binding result was “binds”.

B18: Lib1_P1_F10_scFv (scFv, not shown: small tags and cut ends)
scFv: QVQLVQSGAEVKKPGASVKVSCKVSGYTFSSSGIHWVRQAPGKGLEWMGGIFPNFGTAIYAQKFQGRVTMTEDTSTDTAYMELSSLKSEDTAVYYCARESDFWSGSFTNWGQGTLVTVSSSGGSTITSYNVYYTKLSSSGTDIQMTQSPSSVSASVGDRVTITCRASRSIGNWLAWYQQKPGKAPKLLIYDAFNRASGVPSRFSGSGSGTDFTLTISSLQPEDFANYYCQQSYSTLPRYSFGGGTKVEIK
With B18, the binding result is recorded as “binds”.

B19: 4675_Lib4_scFv (scFv, not shown: small tags and cut ends)
scFv: QVQLQESGPGLVKPSQTLSLTCTVSGFSLTSHPEGVNWIRQPPGKGLEWIGYIAHSGTTDYNPSLKSRVTMSVDTSKNQFSLKVNSVTAADTAVYYCARAYGDSDAFDIWGQGTMVTVSSSGGSTITSYNVYYTKLSSSGTEIVMTQSPATLSLSPGERATLSCRASQSIGRNLAWYQQKPGQAPRLLIYGASKRVTGIPARFSGSGSGTDFTLTISSLEPEDFAVYYCQQYSTWPTFGGGTKVEIK
Regarding B19, the binding result was “binds”.
